Measurements as given in US9487580.

Molecular target: T1, recombinant human IL-23 (p19/p40 heterodimer) (human, UniProt Q9NPF7)
T1 chain 1: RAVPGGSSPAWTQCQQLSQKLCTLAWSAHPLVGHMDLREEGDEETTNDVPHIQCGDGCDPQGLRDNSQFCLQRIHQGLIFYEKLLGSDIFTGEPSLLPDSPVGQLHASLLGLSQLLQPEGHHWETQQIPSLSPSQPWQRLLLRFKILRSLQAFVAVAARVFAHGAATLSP
T1 chain 2: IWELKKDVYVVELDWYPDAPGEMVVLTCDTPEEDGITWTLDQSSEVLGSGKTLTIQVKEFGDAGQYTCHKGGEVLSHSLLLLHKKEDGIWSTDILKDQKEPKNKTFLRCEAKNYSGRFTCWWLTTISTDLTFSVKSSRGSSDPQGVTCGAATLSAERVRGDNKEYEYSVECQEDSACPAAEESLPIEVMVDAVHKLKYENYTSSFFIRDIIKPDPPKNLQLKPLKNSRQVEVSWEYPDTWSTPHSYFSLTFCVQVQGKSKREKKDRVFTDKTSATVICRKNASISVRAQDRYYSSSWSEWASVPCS
Experiment: KinExA

Kd: 3.99 pM
B1: Antibody B (antibody, V domains shown)
VH: QVQLQESGPGLVKPSQTLSLTCTVSGGSISSGGYYWSWIRQHPGKGLEWIGHIHYSGNTYYNPSLKSRVTISVDTSKNQFSLKLSSVTAADTAVYYCARNRGFYYGMDVWGQGTTVTVSS
VL: DIQMTQSPSSVSASVGDRVTITCRASQVISSWLAWYQQKPGKAPSLLIYAASSLQSGVPSRFSGSVSGTDFTLTISSLQPEDFATYYCQQANSFPFTFGPGTKVDFK
